Results published in article PMC12292245, “Probing the Active Site of Class 3 L-Asparaginase by Mutagenesis: Mutations of the Ser-Lys Tandems of ReAV” (Biomolecules, 2025).
Numbering of substitutions follows the chain as printed. In names and notes the source's numbering stands.

B1: ReAV R47A mutant (Rhizobium etli Class 3, type V L-asparaginase) (enzyme)
chain: MTPSEDFVVTDRGGIVENSHRVHAAVVDAKGRLLYALGNPTRMTLAASAAKPAQALAILETEGVAGYGFDDADIALMCASHSSEDRHIARTRAMLSKIKAEEADLRCGGHPSLSEMVNRSWIKQDFIPTAVCSNCSGKHVGMLAGARAIGAGTDGYHLPDHPMQGRVKRTVAELCDLDAGDVEWGTDGCNLPTPAFPLDRLGRIYAKLASAADGSDAGEGQSTRCAALAHIFRAMARHPEMVAGEGRYCTMLMRAFDGALVGKLGADASYAIGVRASDATRQLGTDGALGISVKIEDGNLEMLYAVVTELLERLGIGSPDVRSQLASFHHPQRVNTMGVTTGGVSFPFKLRGSKSNVDDPRLAAVAR
notes: ReAV, inducible thermolabile type V L-asparaginase of Rhizobium etli; Homodimer; source: E. coli BL21-Gold (DE3), purified (HisTrap, TEV digestion, second HisTrap, Superdex 200)
B2: ReAV S80A mutant (Rhizobium etli Class 3, type V L-asparaginase) (enzyme)
chain: B1 chain with A47R, S80A
modifications: Cys249 most likely oxidized, modeled as cysteinesulfinic acid
notes: ReAV, inducible thermolabile type V L-asparaginase of Rhizobium etli; Homodimer; source: E. coli BL21-Gold (DE3), purified (HisTrap, TEV digestion, second HisTrap, Superdex 200); mostly in inclusion bodies, about 10 mg/L recovered from the cell lysate
B3: ReAV K263A mutant (Rhizobium etli Class 3, type V L-asparaginase) (enzyme)
chain: B1 chain with A47R, K263A
modifications: Cys249 chemically modified, modeled as S-hydroxycysteine
notes: ReAV, inducible thermolabile type V L-asparaginase of Rhizobium etli; Homodimer; Zn2+ at occupancy 0.8 in the crystal; source: E. coli BL21-Gold (DE3), purified (HisTrap, TEV digestion, second HisTrap, Superdex 200)
B4: ReAV S48A mutant (Rhizobium etli Class 3, type V L-asparaginase) (enzyme)
chain: B1 chain with A47R, S48A
notes: ReAV, inducible thermolabile type V L-asparaginase of Rhizobium etli; Homodimer; Zn2+ at occupancy 0.7 in the crystal; source: E. coli BL21-Gold (DE3), purified (HisTrap, TEV digestion, second HisTrap, Superdex 200)
B5: ReAV K51A mutant (in fact the double mutant K51A/H238Y; Rhizobium etli Class 3, type V L-asparaginase) (enzyme)
chain: B1 chain with A47R, K51A, H238Y
notes: ReAV, inducible thermolabile type V L-asparaginase of Rhizobium etli; the crystallised protein carries the unintended second mutation H238Y; Homodimer; Zn2+ at occupancy 0.5 in the crystal; source: E. coli BL21-Gold (DE3), purified (HisTrap, TEV digestion, second HisTrap, Superdex 200)

Biological target: the molecule itself
Assay: crystal structure; hanging-drop vapor diffusion at 19 °C, protein 15-21 mg/mL with 0.5-1% v/v DDM; data at 100 K; molecular replacement with WT ReAV PDB 7os5; dimers in the asymmetric unit

Binding result, binds:
B1
B2
B3
B4
B5
